Experimental data reported in patent US20230212288A1 (published 2023).

B1: 309_01_G04 (bispecific antibody)
chain: DIQLTQTPASLAVSLGQRATISCKASQSVDYDGDSYLNWYQQIPGQPPKLLIYDASNLVSGIPPRFSGSGSGTDFTLNIHPVEKVDAATYHCQQSTEDPWTFGGGTKLEIKGGSGGAMAEVQLVESGGGVVQPGRSLRLSCAASGFTVSSNYMSWVRQAPGKGLEWVSAISGSGGSTYYADSVKGRFTTSRDNSKNTLYLQMNSLRAEDTAIYYCAKEDYYGGYFDYWGQGTMVTVSSGGGGSGGGGSGGGASNFMLTQPHSVSESPGKTVTISCTRSSGSIASNYVQWYQQRPGSSPTTVIYEDNQRPSGVPDRFSGSIDSSSNSASLTISGLKTEDEADYYCQSYDSSNQAVFGGGTKVTVLGQPAAAGGGGSQVQLQQSGAELVRPGSSVKISCKASGYAFSSYWMNWVKQRPGQGLEWIGQIWPGDGDTNYNGKFKGKATLTADESSSTAYMQLSSLASEDSAVYFCARRETTTVGRYYYAMDYWGQGTSVTVSSASAAVECPPCPAPPVAGPSVFLFPPKPKDTLMISRTPEVTCVVVDVSHEDPEVQFNWYVDGVEVHNAKTKPREEQFNSTFRVVSVLTVVHQDWLNGKEYKCKVSNKGLPAPIEKTISKTKGQPREPQVYTLPPSREEMTKNQVSLTCLVKGFYPSDIAVEWESNGQPENNYKTTPPMLDSDGSFFLYSKLTVDKSRWQQGNVFSCSVMHEALHNHYTQKSLSLSPGK
B2: 418_01_C05 (bispecific antibody)
chain: DIQLTQTPASLAVSLGQRATISCKASQSVDYDGDSYLNWYQQIPGQPPKLLIYDASNLVSGIPPRFSGSGSGTDFTLNIHPVEKVDAATYHCQQSTEDPWTFGGGTKLEIKGGSGGAMAEVQLVESGGGVVQPGRSLRLSCAASGFTFSSYGMHWVRQAPGKGLEWVSYINSRSSTIYYADSVKGRFTISRDNAKNSLYLQMNSLRDEDTAVYYCAKDKPLSGYAFDIWGQGTTVTVSSGGGGSGGGGSGGGASNFMLTQPHSVSESPGKTVTISCTRSSGSIASNFVQWYQQRPGRAPTIVIFDDDQRPSGVPDRFSGSIDRSSDSASLSISGLKTEDEADYYCQSYATRTQGVVFGGGTKVTVLGQPAAAGGGGSQVQLQQSGAELVRPGSSVKISCKASGYAFSSYWMNWVKQRPGQGLEWIGQIWPGDGDTNYNGKFKGKATLTADESSSTAYMQLSSLASEDSAVYFCARRETTTVGRYYYAMDYWGQGTSVTVSSASAAVECPPCPAPPVAGPSVFLFPPKPKDTLMISRTPEVTCVVVDVSHEDPEVQFNWYVDGVEVHNAKTKPREEQFNSTFRVVSVLTVVHQDWLNGKEYKCKVSNKGLPAPIEKTISKTKGQPREPQVYTLPPSREEMTKNQVSLTCLVKGFYPSDIAVEWESNGQPENNYKTTPPMLDSDGSFFLYSKLTVDKSRWQQGNVFSCSVMHEALHNHYTQKSLSLSPGK
B3: 309_01_A02 (bispecific antibody)
chain: DIQLTQTPASLAVSLGQRATISCKASQSVDYDGDSYLNWYQQIPGQPPKLLIYDASNLVSGIPPRFSGSGSGTDFTLNIHPVEKVDAATYHCQQSTEDPWTFGGGTKLEIKGGSGGAMAEVQLVESGGGLVKPGGSLRLSCAASGFTFSSYSMNWVRQAPGKGLEWVSSISSSSSYIYYADSVKGRFTISRDNAKNSLYLQMNSLRAEDTAVYYCARSSRIQAGMDVWGQGTLVTVSSGGGGSGGGGSGGGASNFMLTQPHSVSESPGKTVTISCTRSSGTIASTYVQWYQQRPGSSPTTVIYEDNQRPSGVPDRFSGSIDSSSNSASLTISGLKTEDAADYFCQSYDSNNRVFGGGTKVTVLGQPAAAGGGGSQVQLQQSGAELVRPGSSVKISCKASGYAFSSYWMNWVKQRPGQGLEWIGQIWPGDGDTNYNGKFKGKATLTADESSSTAYMQLSSLASEDSAVYFCARRETTTVGRYYYAMDYWGQGTSVTVSSASAAVECPPCPAPPVAGPSVFLFPPKPKDTLMISRTPEVTCVVVDVSHEDPEVQFNWYVDGVEVHNAKTKPREEQFNSTFRVVSVLTVVHQDWLNGKEYKCKVSNKGLPAPIEKTISKTKGQPREPQVYTLPPSREEMTKNQVSLTCLVKGFYPSDIAVEWESNGQPENNYKTTPPMLDSDGSFFLYSKLTVDKSRWQQGNVFSCSVMHEALHNHYTQKSLSLSPGK
B4: 410_01_C03 (bispecific antibody)
chain: DIQLTQTPASLAVSLGQRATISCKASQSVDYDGDSYLNWYQQIPGQPPKLLIYDASNLVSGIPPRFSGSGSGTDFTLNIHPVEKVDAATYHCQQSTEDPWTFGGGTKLEIKGGSGGAMAQVQLQQWGAGLLKPSETLSLTCAVYGGSFSGYYWSWIRQPPGKGLEWIGEINHSGSTNYNPSLKSRVTISVDTSKNQFSLKLSSVTAADTAVYYCARATRNGAFDYWGQGTLVTVSSGGGGSGGGGSGGGASNFMLTQPHSVSESPGKTVTISCTRSSGRIASNYVQWYQQRPGSSPTTVIYEDNQRPSGVPDRFSGSIDSSSNSASLTISGLKTEDEADYYCQSYDSSNVVFGGGTQLTVLGQPAAAGGGGSQVQLQQSGAELVRPGSSVKISCKASGYAFSSYWMNWVKQRPGQGLEWIGQIWPGDGDTNYNGKFKGKATLTADESSSTAYMQLSSLASEDSAVYFCARRETTTVGRYYYAMDYWGQGTSVTVSSASAAVECPPCPAPPVAGPSVFLFPPKPKDTLMISRTPEVTCVVVDVSHEDPEVQFNWYVDGVEVHNAKTKPREEQFNSTFRVVSVLTVVHQDWLNGKEYKCKVSNKGLPAPIEKTISKTKGQPREPQVYTLPPSREEMTKNQVSLTCLVKGFYPSDIAVEWESNGQPENNYKTTPPMLDSDGSFFLYSKLTVDKSRWQQGNVFSCSVMHEALHNHYTQKSLSLSPGK
B5: 418_03_E12 (bispecific antibody)
chain: DIQLTQTPASLAVSLGQRATISCKASQSVDYDGDSYLNWYQQIPGQPPKLLIYDASNLVSGIPPRFSGSGSGTDFTLNIHPVEKVDAATYHCQQSTEDPWTFGGGTKLEIKGGSGGAMAQVQLVESGGGVVQPGRSLRLSCAASGFTFSSYGMHWVRQAPGKGLEWVSSISSSSSYIYYADSVKGRFTISRDNAKNSLYLQMNSLRADDTAVYYCARRSFSSVFADYWGQGTLVTVSSGGGGSGGGGSGGGASNFMLTQPHSVSESPGKTVTISCTRSRGSIASNYVQWYQQRPGRAPTIVIFDDDQRPSGVPDRFSGSIDRSSDSASLRISGLKTEDEADYYCQSYATRSQSVVFGGGTKLTVLGQPAAAGGGGSQVQLQQSGAELVRPGSSVKISCKASGYAFSSYWMNWVKQRPGQGLEWIGQIWPGDGDTNYNGKFKGKATLTADESSSTAYMQLSSLASEDSAVYFCARRETTTVGRYYYAMDYWGQGTSVTVSSASAAVECPPCPAPPVAGPSVFLFPPKPKDTLMISRTPEVTCVVVDVSHEDPEVQFNWYVDGVEVHNAKTKPREEQFNSTFRVVSVLTVVHQDWLNGKEYKCKVSNKGLPAPIEKTISKTKGQPREPQVYTLPPSREEMTKNQVSLTCLVKGFYPSDIAVEWESNGQPENNYKTTPPMLDSDGSFFLYSKLTVDKSRWQQGNVFSCSVMHEALHNHYTQKSLSLSPGK
B6: 418_03_H01 (bispecific antibody)
chain: DIQLTQTPASLAVSLGQRATISCKASQSVDYDGDSYLNWYQQIPGQPPKLLIYDASNLVSGIPPRFSGSGSGTDFTLNIHPVEKVDAATYHCQQSTEDPWTFGGGTKLEIKGGSGGAMAQVQLQQWGAGLLKPSETLSLTCAVYGGSFSRYYWSWIRQSPGKGLEWIGEIKHRGRTNYNPSLKSRVTMSVDTSKNQFSLQLRSVTAADTAVYYCARVYSSGWFSYWGQGTLVTVSSGGGGSGGGGSGGGASNFMLTQPHSVSESPGKTVTISCTRSSGSIARNYVQWYQQRPGSAPTTVIYEDNQRPSGVPDRFSGSIDSSSNSASLTISGLKTEDEADYYCQSYDGSNWVFGGGTKVTVLGQPAAAGGGGSQVQLQQSGAELVRPGSSVKISCKASGYAFSSYWMNWVKQRPGQGLEWIGQIWPGDGDTNYNGKFKGKATLTADESSSTAYMQLSSLASEDSAVYFCARRETTTVGRYYYAMDYWGQGTSVTVSSASAAVECPPCPAPPVAGPSVFLFPPKPKDTLMISRTPEVTCVVVDVSHEDPEVQFNWYVDGVEVHNAKTKPREEQFNSTFRVVSVLTVVHQDWLNGKEYKCKVSNKGLPAPIEKTISKTKGQPREPQVYTLPPSREEMTKNQVSLTCLVKGFYPSDIAVEWESNGQPENNYKTTPPMLDSDGSFFLYSKLTVDKSRWQQGNVFSCSVMHEALHNHYTQKSLSLSPGK
B7: 410_01_C09 (bispecific antibody)
chain: DIQLTQTPASLAVSLGQRATISCKASQSVDYDGDSYLNWYQQIPGQPPKLLIYDASNLVSGIPPRFSGSGSGTDFTLNIHPVEKVDAATYHCQQSTEDPWTFGGGTKLEIKGGSGGAMAEVQLVQSGAEVKKPGASVKVSCKASGYTFTSYYMYWVRQAPGQGLEWMGRINPNSGGTNYAQKFQGRVTMTRDTSISTAYMELSRLRSDDTAVYYCARPSRYSNYVDWGQGTLVTVSSGGGGSGGGGSGGGASNFMLTQPHSVSESPGKTVTISCTRSSGSIASNYVQWYQQRPGSSPTTVIYEDNQRPSGVPDRFSGSIDSSSNSASLTISGLKTEDEADYYCQSYDSRWIWVSGGGTKVTVLGQPAAAGGGGSQVQLQQSGAELVRPGSSVKISCKASGYAFSSYWMNWVKQRPGQGLEWIGQIWPGDGDTNYNGKFKGKATLTADESSSTAYMQLSSLASEDSAVYFCARRETTTVGRYYYAMDYWGQGTSVTVSSASAAVECPPCPAPPVAGPSVFLFPPKPKDTLMISRTPEVTCVVVDVSHEDPEVQFNWYVDGVEVHNAKTKPREEQFNSTFRVVSVLTVVHQDWLNGKEYKCKVSNKGLPAPIEKTISKTKGQPREPQVYTLPPSREEMTKNQVSLTCLVKGFYPSDIAVEWESNGQPENNYKTTPPMLDSDGSFFLYSKLTVDKSRWQQGNVFSCSVMHEALHNHYTQKSLSLSPGK
B8: 309_01_G12 (bispecific antibody)
chain: DIQLTQTPASLAVSLGQRATISCKASQSVDYDGDSYLNWYQQIPGQPPKLLIYDASNLVSGIPPRFSGSGSGTDFTLNIHPVEKVDAATYHCQQSTEDPWTFGGGTKLEIKGGSGGAMAEVQLVQSGAEVKKPGASVKVSCKASGYTFTGYYMHWVRQAPGQGLEWMGRINPNSGGTNYAQKFQGRVTMTRDTSISTAYMELSRLRSDDAAVYYCARPSRYSNYVDWGQGTTVTVSSGGGGSGGGGSGGGASNFMLTQPHSVSESPGKTVTISCTRSSGSIASNYVQWYQQRPGSAPTTVIYDDDQRPSGVPDRFSGSIDRSSNSASLTISGLKTEDEADYYCQSYDNTNPWVFGGGTKLTVLGQPAAAGGGGSQVQLQQSGAELVRPGSSVKISCKASGYAFSSYWMNWVKQRPGQGLEWIGQIWPGDGDTNYNGKFKGKATLTADESSSTAYMQLSSLASEDSAVYFCARRETTTVGRYYYAMDYWGQGTSVTVSSASAAVECPPCPAPPVAGPSVFLFPPKPKDTLMISRTPEVTCVVVDVSHEDPEVQFNWYVDGVEVHNAKTKPREEQFNSTFRVVSVLTVVHQDWLNGKEYKCKVSNKGLPAPIEKTISKTKGQPREPQVYTLPPSREEMTKNQVSLTCLVKGFYPSDIAVEWESNGQPENNYKTTPPMLDSDGSFFLYSKLTVDKSRWQQGNVFSCSVMHEALHNHYTQKSLSLSPGK

target: human CD3 receptor complex (human, UniProt P07766 23-207; P09693 23-182; P04234 22-171); assay: cell-based or functional assay
Sequence (P07766 23-207, chain 1 of 3): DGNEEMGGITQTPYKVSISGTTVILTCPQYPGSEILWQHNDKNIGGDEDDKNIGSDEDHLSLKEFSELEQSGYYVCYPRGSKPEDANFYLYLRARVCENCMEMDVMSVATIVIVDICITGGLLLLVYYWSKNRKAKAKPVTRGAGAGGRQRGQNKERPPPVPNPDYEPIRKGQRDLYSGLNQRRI
Sequence (P09693 23-182, chain 2 of 3): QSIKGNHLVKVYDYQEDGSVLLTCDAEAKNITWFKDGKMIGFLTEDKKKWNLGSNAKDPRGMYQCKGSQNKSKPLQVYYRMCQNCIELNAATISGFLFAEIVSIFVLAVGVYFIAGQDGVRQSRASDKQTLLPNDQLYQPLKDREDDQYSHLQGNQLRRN
Sequence (P04234 22-171, chain 3 of 3): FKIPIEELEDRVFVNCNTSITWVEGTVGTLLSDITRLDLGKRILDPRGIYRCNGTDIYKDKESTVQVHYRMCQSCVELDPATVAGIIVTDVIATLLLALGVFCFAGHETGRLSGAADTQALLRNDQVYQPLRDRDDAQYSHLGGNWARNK

Row | Activity (EC50 for activation of Jurkat line cells, pM) | Binder
1 | 2 pM | B1
2 | 1.5 pM | B2
3 | 7.9 pM | B3
4 | 3 pM | B4
5 | 1 pM | B5
6 | 4.3 pM | B6
7 | 2.2 pM | B7
8 | 13.8 pM | B8
